The values that follow come from patent publication US20230121197A1, “ANTIBODIES SPECIFICALLY BINDING THE CARBOXYMETHYLATED CATALYTIC SUBUNIT OF PROTEIN PHOSPHATASE 2A” (Medizinische Universität Wien, priority 2020, published 2023).

The target of assay [1] is PP2Ac C-terminal peptide pT304-meL309, ac-HVTRRpTPDYFL-CH3 (human). The assay can be described thus: ELISA, peptide coated at 2 µg/ml, supernatant 1:50. (An ELISA detects its analyte on a solid surface through an enzyme-linked reagent.)
Assay [2] concerns the target T1, PP6c C-terminal peptide meL305, ac-IPPRTTTPYFL-CH3 (α-carboxymethylated) (human, SMILES …).
T1 construct: also called PP6 meLeu305
T1 peptide: Ac-IPPRTTTPYFL-OMe
Kind of assay: ELISA, values normalized to meL309, Neg = TBS only, N=7. An excerpt:
FIG. 9: Monoclonal antibody 7C10-C5 detects α-carboxymethylated PP2Ac C-terminal peptides with >10-fold higher signal intensity than the α-carboxymethylated PP4c and PP6c C-terminal peptides in ELISA. Nunc Medisorp 96-well ELISA flat-bottom plates were coated with PP2Ac peptides L309 (ac-[…]) (SEQ ID NO:18), meL309 (ac-[…]-CH3) (SEQ ID NO:18), PP4c peptides L307 (ac-[…]) (SEQ ID NO:20), meL307 (ac-[…]-CH₃) (SEQ ID NO:20), PP6c peptides L305 (ac-[…]) (SEQ ID NO:22) or meL305 (ac-[…]-CH₃) (SEQ ID NO:22) at 2 μg/ml in TBS or TBS only (Neg) at 4° C. over-night. After washing once with TBS, the wells were incubated with 2% BSA in TBS for 1 h at RT. After washing once with TBS, the wells were incubated with single clone hybridoma cell culture supernatant, clone 7C10-C5 1:50 for 1 h at RT. After washing twice with TBS, wells were incubated with anti-mouse and anti rabbit HRP-coupled secondary antibody for 1 h at RT, followed by washing 3× in PBS. Bound antibodies were detected by colorimetric reaction with 3,3′,5,5′-Tetramethylbenzidine as substrate, and absorbance was measured at 450 nm. Values were normalized to meL309 which was set to 1. Average and standard deviation of N=7 experiments are shown. […] Statistical significance was assessed using ANOVA followed by Tukey's HSD as a post-hoc test. […]

In assay [3] the target is T2, PP2Ac C-terminal peptide meL309, ac-HVTRRTPDYFL-CH3 (α-carboxymethylated) (human, SMILES …).
T2 construct: also called Y307-meL309; mePP2Ac
T2 peptide: Ac-HVTRRTPDYFL-OMe
The assay can be described thus: SPR, ratio of steady-state KD values. An excerpt: (A) Saturation curve of the titration of the α-carboxymethylated PP2Ac C-terminal peptide (SEQ ID NO:18) on 7C10-C5 or 2A10 immobilized on a Series S Sensor Chip CM5 (GE Healthcare, 10296958). […] (B) Saturation curve of the titration of the α-carboxymethylated PP4c C-terminal peptide (SEQ ID NO:20) on 7C10-C5 or 2A10 immobilized on a Series S Sensor Chip CM5 (GE Healthcare, 10296958). […] The KD values were obtained using the fitting tool of the BiacoreT200 Evaluation Software (version 3.1).
(§1) The differential affinity of anti-carboxymethylated PP2Ac antibodies, 7C10-C5 and 2A10, to carboxymethylated PP2A catalytic subunit versus noncarboxymethylated PP2A catalytic subunit was determined by surface plasmon resonance (SPR) on a Biacore T200 (GE Healthcare) at the Core Facility Biomolecular & Cellular Analysis (University of Natural Resources and Life Sciences Vienna BOKU). The affinity of 7C10-C5 for carboxymethylated and noncarboxymethylated catalytic subunit of PP4 (PP4c), a PP2A-related phosphatase, was also determined.
For orientation: SPR reads the build-up and loss of mass on a sensor chip optically.

Assay [4] has as its target T2, PP2Ac C-terminal peptide meL309, …. The assay can be described thus: SPR (Biacore T200), antibody captured by anti-mouse IgG on CM5 chip, peptide 5-160 nM as analyte, steady state analysis, 25 °C. The method, then: as §1
Series S Sensor Chip CM5 (GE Healthcare, 10296958) Flow cells (e.g. Flow cells 3 and 4 for the data shown in Table 5 and FIG. 32) were coated with 30 μg/mL anti-mouse IgG antibody (in immobilization buffer) using the mouse antibody capture kit (GE Healthcare, BR-1008-38, Lot 10294578) via amine coupling according to the manufacturer's protocol (i.e. https://www.cytivalifesciences. com/en/us/shop/protein-analysis/spr-lab el-free-analysis/capture-reagents/mouse-antibody-capture-kit-p-05986). The immobilisation levels obtained were 11620.2 RU (Flow cell 1), 10836.5 RU (Flow cell 2), 11605.9 RU (Flow cell 3) and 11333.9 RU (Flow cell 4), and thus were within the specifications. […]
SPR experiments were performed with the BiacoreT200 instrument (Cytiva). […] The sensorgrams obtained were analyzed with BiacoreT200 Evaluation Software (version 3.1).

For assay [5], the target named is T3, C(βA)TPDYFL-CH3 peptide (carboxymethylated PP2Ac C-terminus) (Homo sapiens, UniProt P67775).
T3 construct: purchased PiChem GmbH (Graz, Austria)
The assay can be described thus: ELISA screening of hybridoma supernatants with C(βA)TPDYFL peptides. It counts as binding. The following applies: undiluted supernatants, peptides at 3 μg/ml. The method, then: In parallel to the immunoblotting screening, hybridoma supernatants were tested for the presence of TPDYFL-CH3 (SEQ ID NO:1) specific IgG antibodies by ELISA. Specifically, flat-bottom Nunc-Immuno Medisorp 96-well ELISA plates (Thermo; 467320) were coated over night at 4° C. with 50 μl of either a peptide of the sequence C(βA)TPDYFL (SEQ ID NO:48) at a concentration of 3 μg/ml in 10 mM sodium phosphate buffer pH 7.0 or with a peptide of the sequence C(βA)TPDYFL-CH3 (SEQ ID NO:48) at a concentration of 3 μg/ml in 10 mM sodium phosphate buffer pH 7.0. The wells were washed once with PBS, blocked with 180 μl of 2% bovine serum albumin (Sigma, A9647) in PBS for 1 hour at RT and washed again once with PBS. […] Bound antibodies were detected colorimetrically by addition of 50 μl of 33 μg/ml […] (TMB) (Sigma, T2885) in 0.1 M sodium acetate pH 6.0 and 0.01% H2O2 (Sigma, H1009). The colorimetric reaction was stopped after 28 min by addition of 50 μl 0.5 M H2SO4, and absorbance was measured at 450 nm with a Perkin Elmer Wallac Victor 2 1420 Multilabel Counter.

B1: 7C10-C5 monoclonal antibody (antibody, V domains shown)
VH: DVQLQESGPGLVKPSQSLSLTCSVTGYSITSGYYWNWIRQFPGNKLEWMGYISYDGSNNYNPSLKNRISITRDTSKNQFFLKLNSVTTEDTATYYCAGRFAYWGQGTLVTVSA
VL: DVLMTQTPLSLPVSLGDQASISCRSSQSIVHSNGNTYLEWYLQKPGQSPKLLIYKVSNRFSGVPDRFSGSGSGTDFTLKINRVEAEDLGVYYCFQGSHVPWTFGGGTKLEIK
notes: Used as hybridoma culture supernatant (ELISA, Western blot, IHC) or at 50 µg/mL (SPR); also called 7C10 X63; clone 7C10-C5
As usually defined, the Kd is a measure of binding affinity in units of concentration. Low readings indicate tighter binding, high ones weaker binding. With B1, in assay [1], the fold higher ELISA signal intensity than with the carboxymethylated peptide without phosphorylation (meL309) was determined as 1.6 fold. Further, the binding result in assay [2] is “no binding”. The “fold stronger binding than to carboxymethylated PP4c (ratio of KD)” value in assay [3] amounted to 12 fold. The molecule further returned a Kd in assay [4] of 0.011 µM. The “detection of carboxymethylated versus non-carboxymethylated peptide” value in assay [5] was “detected the carboxymethylated peptide”.
